In experiment [1] the target is T1, human sTWEAK protein (Peprotech, 310-06) (human, UniProt O43508 97-249).
T1 construct: Bought protein; also called soluble type TWEAK; ヒトsTWEAK
T1 sequence: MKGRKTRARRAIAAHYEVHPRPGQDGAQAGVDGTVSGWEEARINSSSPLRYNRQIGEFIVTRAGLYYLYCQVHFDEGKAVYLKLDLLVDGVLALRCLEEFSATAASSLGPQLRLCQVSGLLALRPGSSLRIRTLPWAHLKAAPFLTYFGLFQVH
The experiment is described as follows: ELISA, sTWEAK immobilised at 0.5 μg/mL, antibody 80 nM to 0.0000003 nM, chemiluminescence. Background: An ELISA detects its analyte on a solid surface through an enzyme-linked reagent.

Experiment [2] addresses T2, human mTWEAK variant expressed on HEK293 cells (human, UniProt O43508 1-249).
T2 construct: also called human mTWEAK mutant; membrane type TWEAK
T2 sequence: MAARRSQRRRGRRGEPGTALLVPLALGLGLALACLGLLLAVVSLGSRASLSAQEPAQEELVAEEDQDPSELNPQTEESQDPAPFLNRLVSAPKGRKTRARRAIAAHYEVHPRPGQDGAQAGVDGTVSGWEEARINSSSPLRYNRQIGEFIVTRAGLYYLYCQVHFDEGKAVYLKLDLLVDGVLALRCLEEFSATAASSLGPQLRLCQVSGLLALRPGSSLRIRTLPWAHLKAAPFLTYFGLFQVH
The experiment is described as follows: flow cytometry (BD FACSArray) on HEK293 cells transfected with human mTWEAK vector, antibody 80 nM to 0.001355 nM, MFI.

The target of experiment [3] is T2, human mTWEAK variant expressed on …. Briefly: hybridoma screening (Examples 3-6).
Experiment [4] addresses T1, human sTWEAK protein (Peprotech, 310-06). The experiment is described as follows: hybridoma screening, antigen ELISA on immobilised sTWEAK (Examples 3-6).

B1: fully human TBA3-25 (antibody, human IgG1, kappa, V domains shown)
VH: QVQLVQSGAEVKKPGASVRVSCKVSGYTLIDLSMHWVRQAPGNGLEWMGGFDPENGEKIYAEKFQGRVTMTEDTSTDTAYMDLSSLRSEDTAVYYCASGYSYGHFDYWGQGTLVTVSS
VL: DIQMTQSPSTLSASVGDRVTITCRASQNIGRWLAWYQQKPGKAPNLLIYKASRLESGVPSRFSGSGSGTEFTLTITSLQPDDFATYYCQQYNRYSRTFGQGTKVEIKR
modifications: in most of the purified antibody: N-terminal glutamine (amino acid 1) modified to pyroglutamic acid; C-terminal lysine (amino acid 448) deleted
notes: Human variable regions of TBA3-25 joined to human Ig gamma1 and human kappa constant regions; Analysis of the purified antibody found pyroglutamate at the heavy chain N-terminus and loss of the heavy chain C-terminal lysine in most of it; also called fully human antibody of TBA3-25; 完全ヒト型TBA3-25
As to B1, the binding result in experiment [1] and in experiment [2] was “binds” in each case.

B2: fully human TBA4-1 (antibody, human IgG1, kappa, V domains shown)
VH: QVQLVESGGGVVQPGRSLRLSCAASGFTFSSYGMHWVRQAPGKGLAWVAIISSDGNNKYYIDSVKGRFTISRDNSKNTLYLQMNNLRAEDTAVYYCAKDSHISIFGAVDSWGQGTLVTVSS
VL: AIQMTQSPSSLSASVGDRVTITCRASQAIRNDLGWYQQKPGKAPKLLIYAASSLQSGVPSRFSGSGSGTDFTLTISSLQPEDFATYYCLQDYNYPWTFGQGTKVEIKR
notes: Human variable regions of TBA4-1 joined to human Ig gamma1 and human kappa constant regions; also called fully human antibody of TBA4-1; 完全ヒト型TBA4-1
Turning to B2, the binding result in experiment [1] and in experiment [2] was “binds” in each case.

B3: TBA4-1 (chimeric antibody) (antibody, V domains shown)
VH: QVQLVESGGGVVQPGRSLRLSCAASGFTFSSYGMHWVRQAPGKGLAWVAIISSDGNNKYYIDSVKGRFTISRDNSKNTLYLQMNNLRAEDTAVYYCAKDSHISIFGAVDSWGQGTLVTVSS
VL: AIQMTQSPSSLSASVGDRVTITCRASQAIRNDLGWYQQKPGKAPKLLIYAASSLQSGVPSRFSGSGSGTDFTLTISSLQPEDFATYYCLQDYNYPWTFGQGTKVEIKR
As to B3, the binding result in experiment [3] and in experiment [4] was “binds” in each case.

B4: fully human TBA3-35.1 (antibody, human IgG1, kappa, V domains shown)
VH: EVQLLESGGGLVQPGGSLRLSCAASGFTFSSYAMSWVRQAPGKGLEWVSAIGNSGFYTHYADSVKGRFTISRDNSKNTLYLQMNSLRAEDTAVYYCAKVGIAVVGDYYQFGMDVWGQGTTVTVSS
VL: DIQMTQSPSSLSASVGDRVTITCRASQGIRNDLGWYQQKPGKAPKLLIYGASSLQSGVPSRFSGSGSGTDFTLTISSLQPEDFATYYCLQDYNYPWTFGQGTKVEIKR
Turning to B4, the binding result in experiment [1] and in experiment [2] was “binds” throughout.

For the origin of these results see patent publication WO2014171532A1 (dated 2014).
